From the supplement of paper PMC10567573

B1: MYL5 (parent)
chain: FQFASIDVAGNLDYKALSYVITHG
B2: TMEM106C (parent)
chain: YVTTNVSLIPPRSEQLVNFTGKAE

Variants of: B1
Test: protein stability index of a GFP-peptide fusion (GPS, HEK-293T) (PSI 1-6); higher = more stable
Details: c terminus: a fixed tail appended
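Note: lentivirally expressed fusions sorted by FACS into six bins by GFP to DsRed ratio, PSI derived from sequencing read proportions per bin multiplied by bin number.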

Protein stability index, by site and new letter:
Q2: V 3.19
F3: A 2.17 | C 2.41 | D 1.34 | E 1.56 | G 3 | H 2.11 | I 2.29 | K 1.43 | M 2.36 | N 1.36 | P 2.84 | Q 2.32 | R 1.75 | S 1.93 | T 1.22 | V 2.75 | Y 2.59
A4: D 1.9 | E 2.51 | F 2.42 | H 4.96 | L 4.51 | N 2.56 | P 2.19 | Q 3.96 | S 2.84 | T 2.81 | V 1.99
S5: A 3.09 | C 1.36 | D 2.43 | F 3.77 | I 4.16 | K 2.4 | M 3.67 | N 3.74 | V 2.69 | W 2.62 | Y 3.17
I6: A 2.72 | D 1.4 | E 1.49 | F 4.13 | G 1.26 | H 4 | M 3.92 | N 3.39 | P 2.43 | Q 2.92 | S 1.18 | T 1.66 | Y 2.46
D7: A 2.72 | C 3.48 | E 2.83 | G 2.38 | I 3.19 | K 2.52 | N 2.8 | R 1.11 | S 3.9 | Y 3.46
V8: C 2.11 | D 4.22 | E 2.42 | G 3.17 | H 3.1 | K 2.17 | M 2.67 | N 2.44 | P 2.55 | R 2.8 | S 2.09 | W 2.9
A9: F 2.33 | H 2.26 | K 2.71 | L 2.77 | M 3.38 | N 3.37 | P 1.7 | Q 1.91 | T 3.01 | Y 4.67
G10: A 2.49 | D 2.05 | E 3.19 | F 2.96 | H 1.84 | I 2.02 | K 2.08 | L 1.72 | N 2.84 | P 2.92 | Q 3.41 | V 2.6 | W 1.35
N11: A 2.52 | C 3.05 | D 1.17 | E 2.83 | K 2.17 | P 3.96 | Q 5.1 | S 3.23 | T 2.92 | W 2.82
L12: C 1.24 | D 1.67 | E 3.08 | F 4.33 | K 1.98 | P 2.88 | Q 3.21 | S 2.44 | T 1.83 | V 2.56 | Y 2.45
D13: A 3.41 | L 2.49 | N 3.69 | P 2.51 | T 2.23 | V 2.86
Y14: A 1.82 | D 2.21 | E 1.25 | H 2.1 | K 2.48 | M 2.4 | N 2.27 | P 2.28 | Q 2.03 | R 3.3 | S 2.15 | T 3.5 | W 3.44
K15: A 3.38 | D 2.81 | E 1.14 | F 2.81 | G 1.5 | H 2.12 | I 2.98 | N 2.34 | Q 3.65 | R 2.16 | S 2.31 | T 3.79 | V 2.4 | Y 3.8
A16: D 3.18 | E 2.37 | F 3.33 | K 2.25 | L 2.64 | N 1.91 | P 5.11 | Q 2.81 | S 2.11 | T 2.44 | V 3.37
L17: A 2.49 | C 3.94 | D 1.94 | E 1.44 | F 2.71 | G 2.72 | H 2.06 | K 2.71 | M 3.7 | N 1.39 | P 2.35 | Q 2.03 | S 3.25 | T 2.2 | W 2.39 | Y 2.8
S18: D 1.75 | E 1.56 | I 2.66 | K 1.62 | L 1.83 | M 3.46 | Q 1.49
Y19: D 1.53 | E 2.89 | F 1.87 | G 3.74 | H 2.35 | K 1.06 | M 2.44 | N 2.41 | P 1.43 | Q 3.41 | R 2.11 | S 1.73 | T 1.83 | V 2.19 | W 2.69
V20: A 3.37 | C 3.44 | D 1.34 | F 3.64 | G 2.81 | H 3.27 | K 2.23 | M 1.49 | N 1.7 | P 1.32 | Q 2.96 | R 2.46 | S 3.47 | T 2.29 | Y 1.3
I21: A 2.79 | D 2.57 | E 2.11 | G 2.37 | H 1.53 | K 1.64 | M 1.48 | N 1.93 | P 2.18 | Q 1.9 | R 1.03 | S 1.72 | T 1.54 | V 2.26 | Y 1.65
T22: A 2.03 | C 2.52 | D 1.8 | E 2.02 | G 3.98 | H 3.83 | I 2.55 | K 2.22 | M 2.95 | N 2.52 | Q 2.54 | W 4.39
H23: A 2.01 | D 2.25 | E 2.44 | K 1.43 | L 2.78 | P 2.56 | Q 3.48 | R 2.65 | T 2.42
G24: A 3 | F 2.42 | L 3.92 | Q 2.05 | R 3.26 | T 3.18

Variants of: B2
Test: as above
Details: c terminus: a fixed tail appended

Protein stability index, by site and new letter:
Y1: A 3.53 | C 2.4 | D 3.69 | E 3.54 | F 2.21 | G 4 | H 3.88 | I 2.46 | K 3.61 | L 2.94 | M 3.08 | N 3.79 | P 3.49 | Q 3.17 | R 3.44 | S 3.24 | T 3.44 | V 2.19 | W 2.15
V2: A 2.81 | C 2.3 | D 4.58 | E 4.58 | F 2.98 | G 4.17 | H 2.62 | I 2.67 | K 3.51 | L 2.83 | M 3.03 | N 4.08 | P 3.98 | Q 3.28 | R 3.23 | S 3.79 | T 3.48 | W 2.66 | Y 3.22
T3: A 2.75 | C 2.3 | D 1.9 | E 2.99 | F 2.58 | G 2.11 | H 1.98 | I 2.12 | K 2.18 | L 2.15 | M 1.46 | N 1.82 | P 3.42 | Q 2.64 | R 2.52 | S 1.98 | V 1.98 | W 2.91 | Y 2.45
T4: A 1.71 | C 1.29 | D 2.03 | E 1.94 | F 1.43 | G 1.89 | H 2.07 | I 1.75 | K 1.77 | L 2.45 | M 2.59 | N 2.1 | P 2.43 | Q 2.54 | R 2.23 | S 1.86 | V 1.51 | W 2.85 | Y 2.24
